T1: SUDV sGP (soluble glycoprotein) (Sudan ebolavirus, UniProt Q7T9E0 Q7T9E0:33-324)
T1 sequence: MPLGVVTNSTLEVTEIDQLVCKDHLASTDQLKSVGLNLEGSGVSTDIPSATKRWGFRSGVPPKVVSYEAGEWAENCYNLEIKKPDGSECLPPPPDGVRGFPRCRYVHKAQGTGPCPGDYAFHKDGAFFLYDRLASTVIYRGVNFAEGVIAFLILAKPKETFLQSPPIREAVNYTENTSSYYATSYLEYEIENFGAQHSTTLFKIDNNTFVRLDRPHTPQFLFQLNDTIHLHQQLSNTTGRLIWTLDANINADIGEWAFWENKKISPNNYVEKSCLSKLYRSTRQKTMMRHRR

T2: Lcn2 (lipocalin 2, uterocalin) (UniProt P11672 P11672:21-200)
T2 sequence: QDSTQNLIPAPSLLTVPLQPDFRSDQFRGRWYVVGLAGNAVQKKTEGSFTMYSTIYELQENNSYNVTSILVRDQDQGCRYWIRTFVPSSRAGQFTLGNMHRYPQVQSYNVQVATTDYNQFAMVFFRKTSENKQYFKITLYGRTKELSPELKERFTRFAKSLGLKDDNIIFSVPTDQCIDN

B1: Aptamer 6022 (ssDNA)
DNA: GCCTGTTGTGAGCCTCCTGTCGAACCCTATCTTGTTCATGCTATTCTCAATATTTTCGGTTCACTTACCGTCTGCCTTTGAGCGTTTATTCTTGTCTCCC
B2: Aptamer 6011 (ssDNA)
DNA: GCCTGTTGTGAGCCTCCTGTCGAACAACCACTCATATCTACTACATGACTTGCTCCATTCTGTTCTTTCTCTACGCATTGAGCGTTTATTCTTGTCTCCC
B3: Aptamer 6012 (ssDNA)
DNA: GCCTGTTGTGAGCCTCCTGTCGAACGTATTTCTTGCTTCCTTCCTTGCCGCGCACATTGCAGTATAAGTACCTGTCGTTGAGCGTTTATTCTTGTCTCCC
B4: Aptamer 6021 (ssDNA)
DNA: GCCTGTTGTGAGCCTCCTGTCGAAACTGTACTTCACTTTTACCTCCTCTTGCTCTTATCTGTACTATTGTCTCTCCGTTGAGCGTTTATTCTTGTCTCCC

Key:
[1] = biological target: T3, Human serum albumin (HSA) (Homo sapiens, UniProt P02768 P02768:25-609); assay: filter; HSA tested up to 6 uM; estimated; settings: label: 5'-32P
[2] = biological target: T4, EBOV sGP (soluble glycoprotein) (Zaire ebolavirus, UniProt P60170 P60170:33-324); assay: filter; PBS with 5 mM Mg, pH 7; settings: tags: His-tag; chain copies: 2; label: 5'-32P
[3] = biological target: T1, SUDV sGP (soluble glycoprotein); assay: filter; no serum; settings: chain copies: 2; label: 5'-32P
[4] = biological target: T2, Lcn2 (lipocalin 2, uterocalin); assay: filter; no serum; settings: tags: His-tag; label: 5'-32P
[5] = biological target: T3, Human serum albumin (HSA); assay: filter; HSA up to 6 uM; settings: label: 5'-32P
EBOV GP1,2 = EBOV GP1,2 (UniProt Q05320 Q05320:33-650); assay: filter; settings: label: 5'-32P
[6] = biological target: T4, EBOV sGP (soluble glycoprotein); assay: filter; settings: tags: His-tag; chain copies: 2; label: 5'-32P
[7] = biological target: T2, Lcn2 (lipocalin 2, uterocalin); assay: filter; text says Lcn2 not bound by the aptamers; settings: tags: His-tag; label: 5'-32P

T4 sequence (P60170 33-324, one chain of several): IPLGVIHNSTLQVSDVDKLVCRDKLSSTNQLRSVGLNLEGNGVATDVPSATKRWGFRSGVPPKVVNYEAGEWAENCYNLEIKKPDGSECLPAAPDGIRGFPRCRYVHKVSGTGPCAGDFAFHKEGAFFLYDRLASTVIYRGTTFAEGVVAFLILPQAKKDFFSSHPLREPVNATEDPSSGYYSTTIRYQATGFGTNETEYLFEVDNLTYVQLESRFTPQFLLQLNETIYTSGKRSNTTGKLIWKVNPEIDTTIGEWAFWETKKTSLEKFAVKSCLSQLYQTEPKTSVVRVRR
T3 sequence (P02768 25-609, one chain of several): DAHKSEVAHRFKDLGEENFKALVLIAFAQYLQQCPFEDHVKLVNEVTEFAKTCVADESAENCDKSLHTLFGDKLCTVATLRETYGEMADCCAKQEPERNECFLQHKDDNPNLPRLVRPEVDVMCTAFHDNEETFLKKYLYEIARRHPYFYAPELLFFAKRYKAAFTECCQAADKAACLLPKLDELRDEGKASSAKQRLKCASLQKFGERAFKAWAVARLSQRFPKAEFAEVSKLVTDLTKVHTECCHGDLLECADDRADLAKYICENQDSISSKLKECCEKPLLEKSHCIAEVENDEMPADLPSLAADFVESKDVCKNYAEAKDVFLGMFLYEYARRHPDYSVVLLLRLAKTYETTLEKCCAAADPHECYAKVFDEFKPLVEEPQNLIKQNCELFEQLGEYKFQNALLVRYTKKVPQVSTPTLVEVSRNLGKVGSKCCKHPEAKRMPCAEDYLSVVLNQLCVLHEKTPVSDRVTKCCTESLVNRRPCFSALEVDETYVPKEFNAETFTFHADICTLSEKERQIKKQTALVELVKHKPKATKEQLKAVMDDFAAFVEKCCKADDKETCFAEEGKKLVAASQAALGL
EBOV GP1,2, sequence (Q05320 33-650, one chain of several): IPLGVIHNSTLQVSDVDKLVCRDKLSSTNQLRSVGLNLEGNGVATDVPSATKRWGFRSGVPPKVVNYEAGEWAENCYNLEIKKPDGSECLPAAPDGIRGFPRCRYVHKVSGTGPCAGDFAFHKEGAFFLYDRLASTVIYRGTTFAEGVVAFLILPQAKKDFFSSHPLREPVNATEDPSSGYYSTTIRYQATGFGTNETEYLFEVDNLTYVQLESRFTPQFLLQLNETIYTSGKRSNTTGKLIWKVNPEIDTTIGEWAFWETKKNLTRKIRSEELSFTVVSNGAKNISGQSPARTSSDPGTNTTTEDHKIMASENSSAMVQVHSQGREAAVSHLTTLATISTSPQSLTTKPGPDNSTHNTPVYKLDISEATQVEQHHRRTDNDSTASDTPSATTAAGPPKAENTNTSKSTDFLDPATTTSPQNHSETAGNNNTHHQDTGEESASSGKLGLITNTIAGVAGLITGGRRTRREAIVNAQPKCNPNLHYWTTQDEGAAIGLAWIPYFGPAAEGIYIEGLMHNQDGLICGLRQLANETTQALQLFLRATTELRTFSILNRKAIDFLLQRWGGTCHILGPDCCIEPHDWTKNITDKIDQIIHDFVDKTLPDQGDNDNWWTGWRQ

Binder | Kd [1] [nM] | Kd [2] [nM] | Kd [3] [nM] | binding result [4] | binding result [5] | binding result (EBOV GP1,2) | Kd [6] [nM] | binding result [7] | Kd (EBOV GP1,2) [nM]
B1 | ~100000 | 100 |  |  |  |  |  |  | 
B2 |  |  | 240 | no binding | no binding | binds | 30 |  | 
B3 |  | 90 |  |  | no binding |  |  | no binding | 22
B4 |  | 20 |  |  | no binding |  |  |  | 
